# IntAct's records for PubMed 19357306
# B1: Aurora kinase A (Homo sapiens), O14965 (parent)
# chain: MDRSKENCISGPVKATAPVGGPKRVLVTQQFPCQNPLPVNSGQAQRVLCPSNSSQRIPLQAQKLVSSHKPVQNQKQKQLQATSVPHPVSRPLNNTQKSKQPLPSAPENNPEEELASKQKNEESKKRQWALEDFEIGRPLGKGKFGNVYLAREKQSKFILALKVLFKAQLEKAGVEHQLRREVEIQSHLRHPNILRLYGYFHDATRVYLILEYAPLGTVYRELQKLSKFDEQRTATYITELANALSYCHSKRVIHRDIKPENLLLGSAGELKIADFGWSVHAPSSRRTTLCGTLDYLPPEMIEGRMHDEKVDLWSLGVLCYEFLVGKPPFEANTYQETYKRISRVEFTFPDFVTEGARDLISRLLKHNPSQRPMLREVLEHPWITANSSKPSNCQNKESASKQS
# Variants of: B1
# Settings: with tpx2_human TPX2, Q9ULW0
# Sequence of tpx2_human TPX2, Q9ULW0 (Q9ULW0 whole entry): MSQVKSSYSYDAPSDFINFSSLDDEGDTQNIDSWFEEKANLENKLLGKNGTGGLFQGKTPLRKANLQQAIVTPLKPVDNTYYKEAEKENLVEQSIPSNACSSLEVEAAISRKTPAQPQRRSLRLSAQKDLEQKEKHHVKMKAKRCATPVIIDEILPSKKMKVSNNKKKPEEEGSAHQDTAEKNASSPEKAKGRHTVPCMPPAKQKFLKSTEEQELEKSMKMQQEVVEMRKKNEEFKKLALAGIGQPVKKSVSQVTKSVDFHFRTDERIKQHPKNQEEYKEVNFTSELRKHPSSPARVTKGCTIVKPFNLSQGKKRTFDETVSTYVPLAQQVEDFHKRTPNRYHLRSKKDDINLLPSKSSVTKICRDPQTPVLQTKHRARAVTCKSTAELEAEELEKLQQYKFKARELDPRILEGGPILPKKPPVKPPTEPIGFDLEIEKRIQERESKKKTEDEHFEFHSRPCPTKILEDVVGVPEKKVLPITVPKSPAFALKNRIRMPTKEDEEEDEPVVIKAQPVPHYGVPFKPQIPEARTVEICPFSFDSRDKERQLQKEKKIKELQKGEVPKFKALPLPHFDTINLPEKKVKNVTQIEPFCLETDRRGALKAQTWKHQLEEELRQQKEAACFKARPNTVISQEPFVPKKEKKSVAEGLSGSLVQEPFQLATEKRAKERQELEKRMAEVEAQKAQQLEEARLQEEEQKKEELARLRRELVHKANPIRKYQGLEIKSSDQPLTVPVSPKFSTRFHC
row,Variant,effect of a mutation on the interaction
1,G198N,decreasing interaction

# Variants of: B1
# Settings: with ince_human INCENP
row,Variant,effect of a mutation on the interaction
1,G198A,disrupting interaction strength
2,G198L,disrupting interaction strength
3,G198V,disrupting interaction strength
